T1: human haptoglobin Hp1 (residue 1-347) (human, UniProt P00738-2 19-347)
T1 sequence: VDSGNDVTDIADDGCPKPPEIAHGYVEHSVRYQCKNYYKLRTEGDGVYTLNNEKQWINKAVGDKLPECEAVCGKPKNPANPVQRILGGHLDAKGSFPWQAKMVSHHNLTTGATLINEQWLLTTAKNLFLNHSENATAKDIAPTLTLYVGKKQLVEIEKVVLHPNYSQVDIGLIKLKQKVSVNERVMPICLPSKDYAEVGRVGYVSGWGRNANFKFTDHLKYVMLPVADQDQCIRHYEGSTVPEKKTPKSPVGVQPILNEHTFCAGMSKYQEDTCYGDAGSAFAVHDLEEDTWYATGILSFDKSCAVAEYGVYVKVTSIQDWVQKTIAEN

B1: human hemoglobin (complex)
chain 1: not shown
chain 2: not shown
B2: human haptoglobin Hp2 (residue 1-406) (natural protein)
chain: VDSGNDVTDIADDGCPKPPEIAHGYVEHSVRYQCKNYYKLRTEGDGVYTLNDKKQWINKAVGDKLPECEADDGCPKPPEIAHGYVEHSVRYQCKNYYKLRTEGDGVYTLNNEKQWINKAVGDKLPECEAVCGKPKNPANPVQRILGGHLDAKGSFPWQAKMVSHHNLTTGATLINEQWLLTTAKNLFLNHSENATAKDIAPTLTLYVGKKQLVEIEKVVLHPNYSQVDIGLIKLKQKVSVNERVMPICLPSKDYAEVGRVGYVSGWGRNANFKFTDHLKYVMLPVADQDQCIRHYEGSTVPEKKTPKSPVGVQPILNEHTFCAGMSKYQEDTCYGDAGSAFAVHDLEEDTWYATGILSFDKSCAVAEYGVYVKVTSIQDWVQKTIAEN
B3: CD163 ectodomain (human CD163, residue 1-1050) (receptor)
chain: not shown
B4: hemoglobin-haptoglobin 1 complex (Hb-Hp1) (complex)
chain 1: not shown
chain 2: not shown
chain 3: T1 sequence
B5: hemoglobin-haptoglobin 2 complex (Hb-Hp2) (complex)
chain 1: not shown
chain 2: not shown
chain 3: B2 chain

Columns and labels:
[1] = biological target: B2; experiment: SEC
[2] = biological target: T1, human haptoglobin Hp1 (residue 1-347); experiment: SEC
SEC [3] = biological target: the molecule itself; experiment: SEC
AUC [4] = biological target: the molecule itself; experiment: AUC
SEC [5] = biological target: the molecule itself; experiment: SEC; remark: listed apart in the source
AUC [6] = biological target: the molecule itself; experiment: AUC; remark: listed apart in the source
CD163 ectodomain E359A = CD163 ectodomain E359A (human, UniProt Q86VB7 42-1050, E359A); experiment: pull-down
Sequence of CD163 ectodomain E359A (Q86VB7 42-1050 E359A): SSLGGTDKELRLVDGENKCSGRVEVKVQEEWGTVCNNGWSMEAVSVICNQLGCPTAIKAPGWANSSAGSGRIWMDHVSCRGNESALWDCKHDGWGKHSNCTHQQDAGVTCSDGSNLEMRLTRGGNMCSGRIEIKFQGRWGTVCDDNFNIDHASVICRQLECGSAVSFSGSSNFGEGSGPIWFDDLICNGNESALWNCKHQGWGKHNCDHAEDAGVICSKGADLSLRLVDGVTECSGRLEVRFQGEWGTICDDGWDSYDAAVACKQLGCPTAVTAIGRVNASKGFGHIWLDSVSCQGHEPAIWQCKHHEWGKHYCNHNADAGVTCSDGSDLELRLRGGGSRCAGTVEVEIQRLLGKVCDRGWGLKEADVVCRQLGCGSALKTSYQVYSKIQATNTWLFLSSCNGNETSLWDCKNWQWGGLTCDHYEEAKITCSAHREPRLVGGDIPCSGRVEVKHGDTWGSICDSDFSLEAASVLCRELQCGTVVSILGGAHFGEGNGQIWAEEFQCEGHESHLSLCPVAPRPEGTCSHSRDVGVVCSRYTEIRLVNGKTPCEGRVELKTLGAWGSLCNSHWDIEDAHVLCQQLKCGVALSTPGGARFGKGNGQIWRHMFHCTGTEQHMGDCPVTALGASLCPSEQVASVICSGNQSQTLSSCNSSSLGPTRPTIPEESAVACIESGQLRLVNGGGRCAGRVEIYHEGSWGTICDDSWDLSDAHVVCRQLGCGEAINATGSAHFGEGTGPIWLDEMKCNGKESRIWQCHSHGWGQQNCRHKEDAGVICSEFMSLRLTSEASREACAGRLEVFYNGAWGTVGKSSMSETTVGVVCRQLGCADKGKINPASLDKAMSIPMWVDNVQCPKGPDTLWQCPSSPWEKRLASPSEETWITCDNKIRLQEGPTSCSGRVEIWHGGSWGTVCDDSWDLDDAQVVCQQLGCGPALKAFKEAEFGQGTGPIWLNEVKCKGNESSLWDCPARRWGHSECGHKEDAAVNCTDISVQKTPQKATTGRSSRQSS

[7] = biological target: CD163 ectodomain D292A/D293A (human, UniProt Q86VB7 42-1050, D292A | D293A); experiment: pull-down
Sequence of CD163 ectodomain D292A/D293A (Q86VB7 42-1050 D292A/D293A): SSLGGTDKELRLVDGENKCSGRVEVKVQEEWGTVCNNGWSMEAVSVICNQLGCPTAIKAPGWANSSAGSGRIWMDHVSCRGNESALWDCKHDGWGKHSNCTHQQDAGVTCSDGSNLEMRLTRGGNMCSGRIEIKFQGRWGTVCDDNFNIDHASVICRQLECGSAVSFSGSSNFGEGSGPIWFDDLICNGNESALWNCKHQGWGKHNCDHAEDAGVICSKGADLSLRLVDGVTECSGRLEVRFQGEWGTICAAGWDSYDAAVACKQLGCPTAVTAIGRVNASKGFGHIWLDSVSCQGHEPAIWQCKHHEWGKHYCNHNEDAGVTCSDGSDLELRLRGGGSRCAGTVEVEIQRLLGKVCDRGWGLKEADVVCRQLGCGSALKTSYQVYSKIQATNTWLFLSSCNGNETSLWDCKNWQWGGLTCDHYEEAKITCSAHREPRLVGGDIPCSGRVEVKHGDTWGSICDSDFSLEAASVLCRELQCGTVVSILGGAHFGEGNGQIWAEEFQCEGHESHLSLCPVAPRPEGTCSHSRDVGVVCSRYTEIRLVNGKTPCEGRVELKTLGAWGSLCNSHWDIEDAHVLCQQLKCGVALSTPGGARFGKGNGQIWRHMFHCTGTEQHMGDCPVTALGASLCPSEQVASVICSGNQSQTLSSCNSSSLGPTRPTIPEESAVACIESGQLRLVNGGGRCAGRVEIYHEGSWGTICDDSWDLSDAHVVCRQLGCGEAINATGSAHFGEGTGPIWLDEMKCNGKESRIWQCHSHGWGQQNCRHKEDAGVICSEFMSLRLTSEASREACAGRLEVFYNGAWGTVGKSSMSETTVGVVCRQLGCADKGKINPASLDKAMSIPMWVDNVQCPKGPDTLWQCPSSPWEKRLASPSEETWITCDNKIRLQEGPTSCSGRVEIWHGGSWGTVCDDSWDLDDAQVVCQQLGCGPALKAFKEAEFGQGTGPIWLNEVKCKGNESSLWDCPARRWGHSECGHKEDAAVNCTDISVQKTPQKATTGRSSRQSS

[8] = biological target: B3; experiment: AUC
[9] = biological target: B3; experiment: SEC

Binder: B1
binding result [1]: binds | binding result [2]: binds

Binder: B2
binding result (SEC [3]): binds

Binder: B3
stoichiometry N (AUC [4]): 3 | stoichiometry N (SEC [5]): ~3 | stoichiometry N (AUC [6]): 2

Binder: B4
binding result (CD163 ectodomain E359A): binds | binding result [7]: binds | binding result [8]: binds

Binder: B5
binding result [9]: binds

Source: PMC12279954 (Nature Communications, 2025)
